Laboratory results published in PMC11333492.

Key:
[1] = target: B/Memphis/13/2003 FluPol PA-NE332-333AA (PB2, PA mutant, PB1-luc2); settings: parent: est. 100; read off a plot
[2] = target: B/Memphis/13/2003 FluPol PA-NENF332-335AAAA (PB2, PA mutant, PB1-luc2); settings: parent: est. 100; read off a plot
[3] = target: B/Memphis/13/2003 FluPol PA-NY360-361AA (PB2, PA mutant, PB1-luc2); settings: parent: est. 100; read off a plot
[4] = target: FluPolB (influenza B/Memphis/13/2003 polymerase heterotrimer) (influenza B/Memphis/13/2003) (UniProt Q5V8Z9); experiment: mass photometry

“B/Memphis/13/2003 FluPol wild type (PB2, PA, PB1-luc1) for the split luciferase assays (from UniProt Q5V8Z9;Q5V8Y6;Q5V8X3) PA:N332A; PA:E333A” showed a percent of parent [1] of 33 % FluPol-WT.

With “B/Memphis/13/2003 FluPol wild type (PB2, PA, PB1-luc1) for the split luciferase assays (from UniProt Q5V8Z9;Q5V8Y6;Q5V8X3) PA:N332A; PA:E333A; PA:N334A; PA:F335A” the percent of parent [2] was 9 % FluPol-WT.

“B/Memphis/13/2003 FluPol wild type (PB2, PA, PB1-luc1) for the split luciferase assays (from UniProt Q5V8Z9;Q5V8Y6;Q5V8X3) PA:N360A; PA:Y361A” showed a percent of parent [3] of 6 % FluPol-WT.

“FluPolB (influenza B/Memphis/13/2003 polymerase heterotrimer) (from UniProt Q5V8Z9;Q5V8Y6;Q5V8X3) (complex)” showed a percent dimers [4] of 14%.
